{
  "source": "patent US20250353908A1",
  "about": "(ARCELLX, published 2025)",
  "binders": {"B1": {"name": "CS1DD021 adapter protein of the format DD-GS linker-Q26 (designed binder)", "chain": "MGSWDEFNQRLGAFEERLQALGGSEAELAALEKEIAAFESELQAYKGKGNPEVEFLRWYADGIRWELQAYRHN"}},
  "target": "T1, CS1-Fc (human, UniProt Q9NQ25 23-226)",
  "T1 construct": "also called recombinant human CS1-Fc; CS1-Fc polypeptide; not shown: Fc portion of CS1-Fc",
  "T1 sequence": "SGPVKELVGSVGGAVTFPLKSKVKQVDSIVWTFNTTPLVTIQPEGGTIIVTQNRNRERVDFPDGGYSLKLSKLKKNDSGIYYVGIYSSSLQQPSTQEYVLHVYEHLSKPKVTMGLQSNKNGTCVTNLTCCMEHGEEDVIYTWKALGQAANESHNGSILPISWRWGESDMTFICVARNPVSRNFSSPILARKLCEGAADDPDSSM",
  "assay": "SPR (Biacore), adapter protein DD-GS linker-Q26, CS1-Fc target",
  "description": "One or more of the above discussed methods were used to identify the SEQ ID NO: 41-47, 49-61, 91-93 and 96-106 variant CS1 specific D domains. […] In addition to binding human CS1, the CS1DD03, CSDD006 and CS1DD007 D domains are cross-reactive with cyno/rhesus CS1.",
  "data": [
    {"binder": "B1", "values": [
      {"measurement": "Kd", "value": 16, "unit": "nM"}
    ]}
  ]
}
